Tests used:
[1] = target: chimeric receptor consisting of the extracellular domain of mouse VEGFR-3 and the cytoplasmic domain of erythropoietin receptor, on Ba/F3 cells (mouse) (UniProt P35917); assay: cell-based or functional assay
[2] = target: chimeric receptor consisting of the extracellular domain of mouse VEGFR-2 and the cytoplasmic domain of erythropoietin receptor, on Ba/F3 cells (mouse) (UniProt P35918); assay: cell-based or functional assay
UniProt P35918, sequence (P35918 20-762, change not shown): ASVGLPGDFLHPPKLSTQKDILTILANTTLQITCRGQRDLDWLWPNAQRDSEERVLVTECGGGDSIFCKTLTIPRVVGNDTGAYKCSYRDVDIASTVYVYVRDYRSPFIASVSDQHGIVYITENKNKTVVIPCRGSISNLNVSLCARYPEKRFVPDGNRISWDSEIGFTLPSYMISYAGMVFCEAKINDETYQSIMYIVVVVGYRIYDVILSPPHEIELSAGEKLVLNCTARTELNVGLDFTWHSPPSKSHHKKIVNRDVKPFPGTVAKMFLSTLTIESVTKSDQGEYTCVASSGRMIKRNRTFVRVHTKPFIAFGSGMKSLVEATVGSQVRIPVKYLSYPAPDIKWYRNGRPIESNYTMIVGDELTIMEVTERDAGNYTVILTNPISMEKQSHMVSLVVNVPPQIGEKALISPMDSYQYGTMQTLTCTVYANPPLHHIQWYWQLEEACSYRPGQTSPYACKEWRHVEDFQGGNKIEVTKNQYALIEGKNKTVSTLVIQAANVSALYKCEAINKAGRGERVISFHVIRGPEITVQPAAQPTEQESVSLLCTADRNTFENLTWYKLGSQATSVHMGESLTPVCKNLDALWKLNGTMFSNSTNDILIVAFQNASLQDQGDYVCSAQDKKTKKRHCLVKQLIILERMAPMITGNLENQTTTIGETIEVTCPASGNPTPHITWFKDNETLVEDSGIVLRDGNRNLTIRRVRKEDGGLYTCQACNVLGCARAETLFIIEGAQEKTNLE

UniProt P35917, sequence (P35917 25-775, change not shown): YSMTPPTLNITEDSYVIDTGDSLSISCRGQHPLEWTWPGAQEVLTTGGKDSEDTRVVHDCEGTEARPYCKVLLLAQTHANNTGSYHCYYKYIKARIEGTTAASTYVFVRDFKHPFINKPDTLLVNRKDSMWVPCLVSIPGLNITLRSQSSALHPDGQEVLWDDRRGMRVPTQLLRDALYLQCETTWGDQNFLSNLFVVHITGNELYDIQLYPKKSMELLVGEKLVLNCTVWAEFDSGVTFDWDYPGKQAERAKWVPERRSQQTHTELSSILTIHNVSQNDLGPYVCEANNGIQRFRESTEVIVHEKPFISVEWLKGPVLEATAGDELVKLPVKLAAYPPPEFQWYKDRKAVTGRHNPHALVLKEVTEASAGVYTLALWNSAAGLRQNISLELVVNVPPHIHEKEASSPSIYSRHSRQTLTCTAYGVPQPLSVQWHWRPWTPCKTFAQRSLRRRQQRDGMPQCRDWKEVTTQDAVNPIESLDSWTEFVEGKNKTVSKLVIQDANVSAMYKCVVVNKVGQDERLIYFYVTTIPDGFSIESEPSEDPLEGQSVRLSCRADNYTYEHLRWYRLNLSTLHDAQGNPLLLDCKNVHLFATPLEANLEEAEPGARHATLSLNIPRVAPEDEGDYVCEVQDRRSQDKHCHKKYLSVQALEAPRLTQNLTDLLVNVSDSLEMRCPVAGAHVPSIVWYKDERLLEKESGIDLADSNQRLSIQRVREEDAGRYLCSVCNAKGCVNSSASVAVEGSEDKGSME

Row | Substance | concentration producing near-maximal survival of Ba/F3 VEGFR-3-EpoR cells without IL-3 [1] [ng/mL] | concentration producing near-maximal survival of Ba/F3-NYK-EpoR cells without IL-3 [2] [ng/mL]
1 | recombinant VEGF-CΔNΔC (from UniProt P49767 103-215) (ligand) | 3 | 50
2 | recombinant VEGF-DΔNΔC (from UniProt O43915 93-201) (ligand) | 500 | 500

— patent US20020065218A1
